Earlier results in PMC10461426.
pKd: −log10 of the molar value. Like-named read-outs stand apart in the source and are kept apart here.

Tests used:
IL-1R1 (Homo sapiens) [1] = target: IL-1R1 (Homo sapiens) (UniProt P14778)
IL-1R1 (Homo sapiens) [2] = target: IL-1R1 (Homo sapiens) (UniProt P14778); remark: listed apart in the source
IL-1R1 (Homo sapiens) [3] = target: IL-1R1 (Homo sapiens) (UniProt P14778); remark: listed apart in the source

IL-1Ra (from UniProt P18510)
pKd (IL-1R1 (Homo sapiens) [1]): 7.42

IL-1beta (from UniProt P01584)
pKd (IL-1R1 (Homo sapiens) [2]): 7.68

IL-38 (from UniProt Q8WWZ1)
pKd (IL-1R1 (Homo sapiens) [3]): 7.03
